According to the nanobody polyreactivity screen of Harvey et al. (2022):

test: yeast display, Sf9 membrane polyspecificity reagent, FACS + sequencing; frameworks hold sequencing errors
Outline: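 In a synthetic yeast display library (Saccharomyces cerevisiae BJ5465), nanobody expression was induced with galactose for 36–48 hours. FACS gates were set low and high (top ~1%) using anti-HA fluorescence for expression and streptavidin fluorescence for binding of the Sf9 membrane reagent. Each polyreactivity label is drawn from the gate of origin.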

| Sequence | polyreactivity (PSR sort gate) |
| --- | --- |
| QVQLVESGGGLVQAGGSLRLSCAASGSIFVRNAMGWYRQAPGKERELVAAISGSGGRTYYADSEKGRFTISRDNAKNTVYLQMNSLKPEDTAVYYCAKEVTYWYGGNYDYWGQGTQVTVSS | high polyreactivity |
| QVQLVESGGGLVQAGGSLRLSCAASGSIFVRNAMGWYRQAPGKERELVAAITYRGGSTYYADSVKGRFTISRDNAKNTVYLQMNSLKPEDTAVYYCAARYWQSYRSQVTHSSTLDYWGQGTQVTVSS | low polyreactivity |
| QVQLVESGGGLVQAGGSLRLSCAASGSIFVRNAMGWYRQAPGKERELVASISYSGGTTYADSVKGRFTISRDNAKNTVYLQMNSLKPEDTAVYYCNAGGVYPRFTFLEQGYEMDYWGQGTQVTVSS | low polyreactivity |
| QVQLVESGGGLVQAGGSLRLSCAASGSIFVRYAMGWYRQAPGKERELVAAISSGGRTYYADSVKGRFTISRDNAKNPVYLQMNSLKPEDTAVYYCNAVKRVPSLGPYDYWGQGTQVTVSS | high polyreactivity |
| QVQLVESGGGLVQAGGSLRLSCAASGSIFVRYAMGWYRQAPGKERELVAGITNSGGSTYYADSVKGRFTISRDNEKNTVYLQMNSLKPEDTAVYYCAADAGGWWYKYYYWGQGTQVTVSS | high polyreactivity |
| QVQLVESGGGLVQAGGSLRLSCAASGSIFVRYAMGWYRQAPGKERELVASIRSRGDSTYYADSVKGRFTISRDNAKNTVYLQMNSLKPEDTAVYYCAGRRYPPRMDYWGQGTQVTVSS | high polyreactivity |
| QVQLVESGGGLVQAGGSLRLSCAASGSIFVRYTMGWYRQAPGKEREMVAAISWGGGSTYYADSVKGRFTISRDNAKNTVYLQMNSLKPEDTAVYYCNADWSWYNYYDFDYWGQGTQVTVSS | low polyreactivity |
| QVQLVESGGGLVQAGGSLRLSCAASGSIFVSNAMGWYRQAPGKERELVAAISQSGGSTYYADSVKGRFTISRDNAKNTVYLQMNSLKPEDTAVYYCATPIRSGFRIYDYWGQGTQVTVSS | low polyreactivity |
| QVQLVESGGGLVQAGGSLRLSCAASGSIFVSYAMGWYRQAPGKERELVAAIRRGGTSTYYEDSVKGRFTISRDNAKNTVYLQMNSLKPEDTAVYYCAAPRYFTRYRPLGIYDYWGQGTQVTVSS | high polyreactivity |
| QVQLVESGGGLVQAGGSLRLSCAASGSIFVTNAMGWYRQAPGKERELVAAIRWSGDSTYYADSVKGRFTISRDNAKNTVYLQMKSLKPEDTAVYYCDAESFRYIRLNYKYGDYYWGHGTQVTVSS | high polyreactivity |
| QVQLVESGGGLVQAGGSLRLSCAASGSIFVTNAMGWYRQAPGKERELVAAITRGGNTNYADSVKGRFTISRDNAKNTVYLQMNSLKPEDTAVYYCAADTSYYYVYGYFPGYYYWGLGTQVTVSS | low polyreactivity |
| QVQLVESGGGLVQAGGSLRLSCAASGSIFVTYALGWYRQAPGKERELVAAINSGGRTNYADSVKGRFTISRDNAKNTVYLQMNSLKPEDTAVYYCAATGRYFYPYYRYDYWGQGTQVTVSS | low polyreactivity |
| QVQLVESGGGLVQAGGSLRLSCAASGSIFVTYAMGWYRPAPGKERELVAAISTSGGSTYADSVKGRFTISRDNAKNTVYLQMNSLKPVDTAVYYCNADDPGYAVPWYWFKYDYWGQGTQVTVSS | low polyreactivity |
| QVQLVESGGGLVQAGGSLRLSCAASGSIFVTYAMGWYRQAPGKERELVAAISTSGGSTYADSVKGRFTISRDNAKNTVYLQMNSLKPEDTAVYYCNADDPGYAVPWYWFKYDYWGQGTQVTVSS | low polyreactivity |
| QVQLVESGGGLVQAGGSLRLSCAASGSIFVVNAMGWYRQAPGKERELVAAIDWSDGGTYYADSVKGRFTISRDNAKNTVYLQMNSLKPEDTAVYYCATVRYVQITRDDYWGQGTQVTVSS | low polyreactivity |
| QVQLVESGGGLVQAGGSLRLSCAASGSIFVVYAMGWYRPAHGKERELVAAIDSGGSTYYADSVKGRFTISRDNAKNTVYLQMNSMKTEDTAVYYCAADIYYYLWGLYYWGQGTQVTVSS | low polyreactivity |

| Sequence | polyreactivity (PSR sort gate) |
| --- | --- |
| QVQLVESGGGLVQAGGSLRLSCAASGSIFVVYAMGWYRQAPGKERELVASIRTGGSTNYADSVKGRFTISRDNAKNTVYLQMNSLKPEDTAVYYCAAASWNSKRHYYVARYYYWGQGTQVTVSS | high polyreactivity |
| QVQLVESGGGLVQAGGSLRLSCAASGSIFVVYAMGWYRQPPGKERELVAAIDSGGSTYYADSVKGRFTISRDNAKNTVYLQLNSLKPEDTAVSYCADDGSTWGDYRTYGYWGQGTQVTVSS | low polyreactivity |
| QVQLVESGGGLVQAGGSLRLSCAASGSIFVVYTMGWYRQAPGKERELVAAITQNGGSSTYYADSVKGRFTISRDNAKNTVYLQMNSLKPEDTAVYYCNKDILSPVVRIFKYGYDMDYWGQGTQVTVSS | low polyreactivity |
| QVQLVESGGGLVQAGGSLRLSCAASGSIFVWYAMGRYRQAPGQERELVARITSGGRTNYADSVKGRFTISRDNAKNTVYLQMISLKPEDTAVYYCAAGRVSWSPDYYWGQGTQGTVSS | high polyreactivity |
| QVQLVESGGGLVQAGGSLRLSCAASGSIFVYNAMGWYRQAPGKEMELVAAISTSGGRTYYADSVKGRFTISRDNAKNTVYLQMNSLKTEDTAVYYCNALGYWRRVVDGFDYWGQGTQVTVSS | high polyreactivity |
| QVQLVESGGGLVQAGGSLRLSCAASGSIFVYNAMGWYRQAPGKERELVAAISSSGGSTYYADSVKGRFTISRDNAKNTVYLQMNSLKPEDTAVYYCAAEAVRKVPSYYSYAYYYWGQGTQVTVSS | high polyreactivity |
| QVQLVESGGGLVQAGGSLRLSCAASGSIFVYNAMGWYRQAPGKERELVAAITNGGSTNYADSVKGRFTISRDNAKNTVYLQMNSLNPEDTAVYYCAARRYTSAVWWRPRHYYWGQGTQVTVSS | high polyreactivity |
| QVQLVESGGGLVQAGGSLRLSCAASGSIFVYNAMGWYRQAPGKERELVAGITFIGGSTYYADSVKGRFTISRDNPKNTVYLQMNSLKPEDTAVYYCNADVAPGIFYGYDSWGQGTQVTVSS | low polyreactivity |
| QVQLVESGGGLVQAGGSLRLSCAASGSIFVYNAMGWYRQAPGKEWELVAAISFSGGDTYYADSVKGRFTISRDNAKNTVYLQMNSLKPEDTAVYYCNVDNSEYEGDYWGQGTQVTVSS | low polyreactivity |
| QVQLVESGGGLVQAGGSLRLSCAASGSIFVYNTMAWYRPAPVKERELVAAISSSGGSTYYADSVKGRFTISRDNAKNTVYLQMNSLKPEDTAVYYCAKGPLYSLFFQLDAPYRYGYWGQGTQVTVSS | low polyreactivity |
| QVQLVESGGGLVQAGGSLRLSCAASGSIFVYYAMGWYRQAPGKERELVAAISQRGGRTYYADSVKGRFTISRDNAKNTVYLQMNSLKPEDTAVYYCAARAWTRSVPYGFYYWGQGTQVTVSS | high polyreactivity |
| QVQLVESGGGLVQAGGSLRLSCAASGSIFVYYAMGWYRQAPGKERELVAAISSRGGRTYYADSVKGRFTISRDNAKNTVYLQMNSLKPEDTAVYYCAAVSSRLWLYDYWGQGTQVTVSS | high polyreactivity |
| QVQLVESGGGLVQAGGSLRLSCAASGSIFVYYAMGWYRQAPGKERELVAAISSTGGRTYYADSVKGRFTISRDNAKNTVYLQMNSLNPEDTAVYYCAKDYGSYFIFLSYPRSRYDYWGQGTQVTVSS | low polyreactivity |
| QVQLVESGGGLVQAGGSLRLSCAASGSIFVYYAMGWYRQAPGKERELVAAITWSSGRTYYADSVKGRFTISRDNAKNTVYLQMNSLKPEDTAVYYWNVLTRYYLGYDYWGQGTQVTVSS | high polyreactivity |
| QVQLVESGGGLVQAGGSLRLSCAASGSIFVYYGMGWYRQAPGKERELFAAISSGGSTHYADSVKGRFTISRDNAKNTVYLQMNSLKPEDTAVYYCAADRFFWLRSYPRYYYWGQGTQVTVSS | low polyreactivity |
